Assay results from US20050069911A1.
Where no end group is shown, it is not given here.

How the values were obtained:
[1] = biological target: antibody P1; assay: peptide competition ELISA
[2] = biological target: antibody P1; assay: peptide competition ELISA; free peptide against immobilized target peptide for P1
[3] = biological target: antibody P1; assay: peptide competition ELISA; free peptide competes with immobilized target peptide for P1
[4] = biological target: antibody P1; assay: peptide competition ELISA (Example 5): the free peptide, in rising concentration, competes with the plate-bound target peptide for antibody P1; HRP-labelled secondary antibody, absorbance at 450
[5] = biological target: antibody C1; assay: peptide competition ELISA
[6] = biological target: antibody C1; assay: peptide competition ELISA; free peptide against immobilized target peptide for C1
[7] = biological target: antibody C1; assay: peptide competition ELISA (Example 5): the free peptide, in rising concentration, competes with the plate-bound target peptide for antibody C1; HRP-labelled secondary antibody, absorbance at 450
[8] = biological target: antibody C1; assay: peptide competition ELISA; free peptide competes with immobilized target peptide for C1

fold higher concentration without competition, against the antigen PET EPAELTDA [1] [fold] | IC50 [2] [µM] | fold higher concentration without competition, against the antigen PET YEVQGEVF [5] [fold] | IC50 [6] [µM] | Binder | also measured
25000 | > 1000 | – | – | DPTQLTDA [nearest-neighbor 8-mer peptide DPTQLTDA] | –
– | – | – | – | EPAELTDA (not fully specified) [PSA-derived 8-mer PET peptide EPAELTDA] | IC50 [3]: 0.04 µM; IC50 (read off the curve) [4]: 0.09 µM
– | – | > 1000 | > 1000 | VEVNGEVF [nearest-neighbor 8-mer peptide VEVNGEVF] | –
– | – | > 1000 | > 1000 | YEVLGEEF [nearest-neighbor 8-mer peptide YEVLGEEF] | –
– | – | – | – | YEVQGEVF [CRP-derived 8-mer PET peptide YEVQGEVF] | IC50 (read off the curve) [7]: 0.9 µM; IC50 [8]: 1 µM
25000 | > 1000 | – | – | EPVELTSA [nearest-neighbor 8-mer peptide EPVELTSA] | –
